Experiments:
Experiment in all cases: cell-based or functional assay
[1] = target: 6His-C-YddH protein (Bacillus subtilis) (UniProt P96645)
[2] = target: h-ACwlS protein (Bacillus subtilis) (UniProt O31852)
[3] = target: 6His-C-CwlO protein (Bacillus subtilis) (UniProt P40767)
[4] = target: His-tag-fused C-terminal active domain of CwlE (His-CwlECTD) (Bacillus subtilis) (UniProt O07532)
Sequence of His-tag-fused C-terminal active domain of CwlE (His-CwlECTD) (Bacillus subtilis) (O07532 371-488 limits assumed): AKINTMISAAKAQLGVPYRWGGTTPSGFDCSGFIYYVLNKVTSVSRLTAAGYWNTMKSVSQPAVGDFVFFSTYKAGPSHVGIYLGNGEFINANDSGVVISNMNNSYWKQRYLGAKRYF

Sequence of 6His-C-YddH protein (Bacillus subtilis) (P96645 206-329): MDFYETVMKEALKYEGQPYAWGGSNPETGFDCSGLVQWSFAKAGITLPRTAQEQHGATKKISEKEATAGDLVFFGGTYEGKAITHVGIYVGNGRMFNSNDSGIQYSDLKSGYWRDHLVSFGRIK
Sequence of 6His-C-CwlO protein (Bacillus subtilis) (P40767 343-473): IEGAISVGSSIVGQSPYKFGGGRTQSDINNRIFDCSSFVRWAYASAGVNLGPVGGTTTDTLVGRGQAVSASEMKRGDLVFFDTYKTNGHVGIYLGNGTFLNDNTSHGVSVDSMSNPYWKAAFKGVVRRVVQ

His-YoeB (from UniProt O34841 24-181)
100: cell wall lysing activity (decrease in turbidity, OD540), enzyme:His-YoeB 1:2 by mole (% of activity inhibited) [1] | cell wall lysing activity (decrease in turbidity, OD540), enzyme:His-YoeB 1:2 by mole (% of activity inhibited) [2] | cell wall lysing activity (decrease in turbidity, OD540), enzyme:His-YoeB 1:2 by mole (% of activity inhibited) [3] | cell wall lysing activity (decrease in turbidity, OD540), His-CwlECTD:His-YoeB 1:2 by mole (% of activity inhibited) [4]

From patent US20100297703A1
